Measured values taken from patent US20030027314A1 (published 2003).

Assays:
[1] = biological target: the molecule itself; assay: homodimer, study of FIG. 9 (method not given)
c-Jun (unmodified) [2] = assay: from thermal melts, Kd at 37 °C (FIG. 4)
c-Jun (unmodified) [3] = assay: thermal melting curve, mixture (FIG. 4)
[4] = biological target: the molecule itself; assay: CD thermal melt, homodimer, 150 mM KCl
CREB (unmodified) = biological target: T1, CREB (unmodified); assay: thermal melting curve, mixture (FIG. 3)
T1 construct: also called unmodified CREB
T1 sequence (chain, from a related filing, looked up): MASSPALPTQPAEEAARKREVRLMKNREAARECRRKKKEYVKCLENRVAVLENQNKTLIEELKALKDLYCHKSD

Sequence of c-Jun (unmodified) (chain, from a related filing, as listed by the source): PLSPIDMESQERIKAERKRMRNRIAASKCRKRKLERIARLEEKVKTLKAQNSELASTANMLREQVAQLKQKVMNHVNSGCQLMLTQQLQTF

B1: 0heptadMax (dimerization domain of Max without an acidic extension) (other)
chain: ASMTGGQQMGRDPDLEELEDSFHSLRDSVPSLQGEKASRAQILDKATEYIQYMRRKNHTHQQDIDDLKRQNALLEQQVRALEKARSSAQLQT
Binder B1 has a Kd [1] of 100 nM.

B2: 4heptad-Fos (c-Fos with the basic region replaced by four acidic heptad repeats) (designed binder)
chain: MASMTGGQQMGRDPDLEQRAEELARENEELEKEAEELEQENAELEAETDQLEDEKSALQTEIANLLKEKEKLEFILAAHRPACKIP
notes: How the two entries relate is not explained; also called aFos; aZIP 4heptadFos
B2 was tested, and the Kd (c-Jun (unmodified) [2]) was 6 nM and the Tm (c-Jun (unmodified) [3]) was 61 °C.

B3: 0heptad-F (F zipper with the basic region deleted) (designed binder)
chain: ASMTGGQQMGRDPGGGTQQEVLELESRNDRLRKEVEQLERELDTLRGIFRQLPESSLVKAMGNCA
notes: expressed in E. coli; also called 0heptad-F (H); heterodimerizing zipper
With B3 the “delta G at 25 °C” value [4] was -8 kcal/mol.

B4: 4heptadCREB (CREB with 4 heptad repeats appended at the amino terminus) (designed binder)
chain: ASMTGGQQMGRDPDLEQRAEELARENEELEKEAEELEQENAELENRVAVLENQNKTLIEELKALKDLYCHKSD
notes: also called 4hep-CREB
Binder B4 has a Tm (CREB (unmodified)) of 53 °C.
